Patent US20140329289, “ANTI-FH APTAMERS, METHOD FOR PRODUCING SAME, AND USES THEREOF” (Laboratoire Francais du Fractionnement et des …, published 2014)
Changes are numbered by the printed parent chain.

B1: MaptH1.1 (ssDNA)
DNA: GGGTCAATGCCAGGTCTCGGGCACGGGTCAGGCGGTTATACGGTGCCCATTGTTCTTTATCGGCTCGCAAGCAGTC
B2: FAM1-10 (ssDNA)
DNA: GGGTCAATGCCAGGTCTCTGGGGGAGGGAGGGTCTGGGGGTTATACGTCACTAGCAAAATCGGCTCGCAAGCAGTC
B3: FAM1-6 (ssDNA)
DNA: GGGTCAATGCCAGGTCTCGAGGAACGTGGGGTCAGGTGGTTATACGCAGGGTACCGGGATCGGCTCGCAAGCAGTC
B4: FAM2-4 (ssDNA)
DNA: GGGTCAATGCCAGGTCTCCCGGTTACCAGTTGGTGTTTGTGGCTTTGCACGTCTGCATATCGGCTCGCAAGCAGTC
B5: FAM1-7 (ssDNA)
DNA: GGGTCAATGCCAGGTCTCGGGGGGCCGGTTATACGGGTCAGGCGGTTATACGGTATTCATCGGCTCGCAAGCAGTC
B6: FAM1-5 (ssDNA)
DNA: GGGTCAATGCCAGGTCTCGCAGAGGTGCGAGGGGCGGTGGGGTCTGGTGGTTATACGCATCGGCTCGCAAGCAGTC
B7: FAM2-5 (ssDNA)
DNA: GGGTCAATGCCAGGTCTCCCGGTTACCAACTATGATAGTATGGTGTTTGTGGCATGATCGGCTCGCAAGCAGTC
B8: FAM4 (ssDNA)
DNA: GGGTCAATGCCAGGTCTCCAAAGGGGGGGGTTGGGGGACCGTCCGTTGTTGATCTCACATCGGCTCGCAAGCAGTC
B9: FAM1-8 (ssDNA)
DNA: GGGTCAATGCCAGGTCTCAATCAGAAGGGTCTGGTGGTTATACGTTCATGTATTGGGTATCGGCTCGCAAGCAGTC
B10: FAM1-12 (ssDNA)
DNA: GGGTCAATGCCAGGTCTCACCGGGTCAGGCGGTTATACGGGTGAGGGCAGGTACATACATCGGCTCGCAAGCAGTC
B11: FAM1-13 (ssDNA)
DNA: B10 DNA with A44G
B12: FAM2-3 (ssDNA)
DNA: GGGTCAATGCCAGGTCTCCCGGTTACCTCCATTGGTGGTGTTAGTGGCTTTGTAGGATATCGGCTCGCAAGCAGTC
B13: FAM2-2 (ssDNA)
DNA: GGGTCAATGCCAGGTCTCCCGGTTACTGCCGTAGTTGTCTTACGGTGGTGTTAGTGGCATCGGCTCGCAAGCAGTC
B14: FAM3 (ssDNA)
DNA: GGGTCAATGCCAGGTCTCTGAGGCGCAGATGTGGAGGCTTTTACAGGCGGTGCGGAACATCGGCTCGCAAGCAGTC
B15: FAM2-6 (ssDNA)
DNA: GGGTCAATGCCAGGTCTCCCGGTTACCATCGAGGACGTCGCTTGGTGTTTGTGGCATGATCGGCTCGCAAGCAGTC
B16: FAM1-3 (ssDNA)
DNA: GGGTCAATGCCAGGTCTCGGACCGCGATGGAGAGGGGTCTGGTGGTTATACGCTATGCATCGGCTCGCAAGCAGTC
B17: FAM1-4 (ssDNA)
DNA: B16 DNA with A21G
B18: FAM1-9 (ssDNA)
DNA: GGGTCAATGCCAGGTCTCGGGGTGCGAGGGTCTGGTGGTTATACGTCGTCACCTCTAGATCGGCTCGCAAGCAGTC
B19: FAM2-7 (ssDNA)
DNA: GGGTCAATGCCAGGTCTCCCGGTTACCAAGATCGTTGTTCTTGGTGTTAGTGGCATTCATCGGCTCGCAAGCAGTC
B20: FAM2-1 (ssDNA)
DNA: GGGTCAATGCCAGGTCTCCCGGTTACCGCGCTAAGCTTGGCGATGGTGTTAGTGGCTGATCGGCTCGCAAGCAGTC
B21: FAM1-11 (ssDNA)
DNA: GGGTCAATGCCAGGTCTCGGGGCAGGCGGTTATACGGAGAGCTTCTTACATGGGCCCTATCGGCTCGCAAGCAGTC
B22: IND1 (ssDNA)
DNA: GGGTCAATGCCAGGTCTCGGTGGGAGGTGAGGTCGTTGGACGGTGGCAGGGGATTTTGATCGGCTCGCAAGCAGTC

Target: T1, Factor H (complement factor H), plasma (Homo sapiens, UniProt P08603 P08603:19-1231)
T1 sequence (P08603 19-1231, one chain of several): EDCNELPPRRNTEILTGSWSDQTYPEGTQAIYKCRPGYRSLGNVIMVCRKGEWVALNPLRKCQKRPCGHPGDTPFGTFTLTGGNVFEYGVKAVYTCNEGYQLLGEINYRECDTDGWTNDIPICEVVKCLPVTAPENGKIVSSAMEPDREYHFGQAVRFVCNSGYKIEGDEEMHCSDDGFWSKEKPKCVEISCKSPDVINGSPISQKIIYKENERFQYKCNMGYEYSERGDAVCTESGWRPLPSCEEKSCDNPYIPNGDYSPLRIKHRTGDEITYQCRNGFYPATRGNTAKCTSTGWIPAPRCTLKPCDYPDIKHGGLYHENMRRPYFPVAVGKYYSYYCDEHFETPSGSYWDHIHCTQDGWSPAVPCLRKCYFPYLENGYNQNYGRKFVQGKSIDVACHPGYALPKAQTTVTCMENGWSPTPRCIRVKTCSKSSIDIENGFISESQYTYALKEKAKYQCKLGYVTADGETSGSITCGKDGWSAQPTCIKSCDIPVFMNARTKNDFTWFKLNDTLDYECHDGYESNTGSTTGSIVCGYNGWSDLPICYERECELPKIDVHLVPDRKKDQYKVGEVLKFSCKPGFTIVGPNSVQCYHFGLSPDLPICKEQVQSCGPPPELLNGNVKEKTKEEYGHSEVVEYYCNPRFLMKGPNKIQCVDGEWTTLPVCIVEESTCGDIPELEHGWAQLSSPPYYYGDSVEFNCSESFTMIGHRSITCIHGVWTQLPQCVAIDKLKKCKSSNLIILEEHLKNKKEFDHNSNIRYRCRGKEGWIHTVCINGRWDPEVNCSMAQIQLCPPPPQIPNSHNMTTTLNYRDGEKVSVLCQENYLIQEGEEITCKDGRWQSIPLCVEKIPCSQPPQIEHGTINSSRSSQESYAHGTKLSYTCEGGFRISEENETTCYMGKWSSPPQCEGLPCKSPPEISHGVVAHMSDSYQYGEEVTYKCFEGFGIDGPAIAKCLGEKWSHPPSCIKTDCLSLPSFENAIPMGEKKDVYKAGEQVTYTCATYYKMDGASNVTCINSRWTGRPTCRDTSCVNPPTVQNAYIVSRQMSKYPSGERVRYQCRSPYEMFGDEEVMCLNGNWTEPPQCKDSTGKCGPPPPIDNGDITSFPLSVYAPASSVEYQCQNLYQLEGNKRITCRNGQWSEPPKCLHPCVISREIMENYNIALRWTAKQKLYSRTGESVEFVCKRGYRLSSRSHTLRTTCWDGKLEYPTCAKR
Experiment: pulldown; affinity chromatography on aptamer-agarose; 74% of A254 retained and eluted with EDTA; 50 mM MgCl2, 50 mM NaCl, pH 7.5
Settings: tags: LFB preparation (Biacore, amine-coupled NHS/EDC on CM5 chip, 5813 RU); Calbiochem 341274 also used in SELEX; label: biotin
Method: The plasma factor H is eluted with a 50 mM Tris+500 mM EDTA buffer at pH 8.0. The elution peak is collected according to the OD profile.

B1: binds.

Target: T1, Factor H (complement factor H), plasma
Experiment: SPR; binding stability; 10 mM MgCl2, pH 7.5
Settings: tags: LFB preparation (Biacore, amine-coupled NHS/EDC on CM5 chip, 5813 RU); Calbiochem 341274 also used in SELEX

Compared with B2, B3 is lower in binding signal: 73.5 RU for the first, 30 RU for the second.

Compared with B4, B5 is lower in binding signal: 27.6 RU for the first, 15.4 RU for the second.

Going from B6 to B7, the binding signal rises from 21.2 RU to 22.2 RU.

Going from B8 to B9, the binding signal rises from 25.9 RU to 36 RU.

Compared with B10, B11 is higher in binding signal: 18.2 RU for the first, 30.6 RU for the second.

First: B12
Second: B13
The binding signal of the first is lower: 18.2 RU for the first, 22.4 RU for the second.

First: B14
Second: B15
The binding signal of the first is lower: 11.7 RU for the first, 22.1 RU for the second.

First: B16
Second: B17
The binding signal of the first is lower: 20.9 RU for the first, 26.2 RU for the second.

First: B18
Second: B19
The binding signal of the first is higher: 57.8 RU for the first, 22.1 RU for the second.

First: B20
Second: B21
The binding signal of the first is higher: 29.6 RU for the first, 16.9 RU for the second.

B22 was tested, and the binding signal was 20.1 RU.

Target: T1, Factor H (complement factor H), plasma
Experiment: SPR; rank 2 of 5 truncations; 50 mM NaCl, 50 mM MgCl2, pH 7.5
Settings: tags: LFB preparation (Biacore, amine-coupled NHS/EDC on CM5 chip, 5813 RU); Calbiochem 341274 also used in SELEX

GGGCACGGGTCAGGCGGTTATACGGTGCCCATTGTTCTTT (ssDNA) [MaptH1.1 N19-58]: binds.

Target: T1, Factor H (complement factor H), plasma
Experiment: SPR; rank 3 of 5 truncations; 50 mM NaCl, 50 mM MgCl2, pH 7.5
Settings: tags: LFB preparation (Biacore, amine-coupled NHS/EDC on CM5 chip, 5813 RU); Calbiochem 341274 also used in SELEX

GGGCACGGGTCAGGCGGTTATACGGTGCCCATTGT (ssDNA) [MaptH1.1 N19-53]: binds.

Target: T1, Factor H (complement factor H), plasma
Experiment: SPR; rank 4 of 5 truncations; 50 mM NaCl, 50 mM MgCl2, pH 7.5
Settings: tags: LFB preparation (Biacore, amine-coupled NHS/EDC on CM5 chip, 5813 RU); Calbiochem 341274 also used in SELEX

GGGCACGGGTCAGGCGGTTATACGGTGCCC (ssDNA) [MaptH1.1 N19-48]: binds.

Target: T1, Factor H (complement factor H), plasma
Experiment: SPR; strongest of the five truncations; 50 mM Tris, 50 mM NaCl, 50 mM MgCl2, pH 7.5; p444 calls the FH recombinant, methods say LFB FH
Settings: tags: LFB preparation (Biacore, amine-coupled NHS/EDC on CM5 chip, 5813 RU); Calbiochem 341274 also used in SELEX

CAGGTCTCGGGCACGGGTCAGGCGGTTATACGGTGCCC (ssDNA) [MaptH1.1 N13-48 (MaptH1.1CSO)]: binds.
